Measured values taken from the RNAGym collection of RNA variant scans (doi:10.7554/elife.80360).

B1: CPEB3 Ribozyme (parent)
chain: GGGGGCCACAGCAGAAGCGUUCACGUCGCGGCCCCUGUCAGAUUCUGGUGAAUCUGCGAAUUCUGCUGU

Variants of: B1
Test: self-cleavage, relative activity (ratio to wild type); higher = more cleavage; co-transcriptional

Variant | self-cleavage
U21G U36A | 0.17
U21C G58A | 0.673
U21C G58C | 0.826
U21C G58U | 0.952
U21G C66G | 0.219
U21G C66A | 0.263
U21G C66U | 0.529
C22A C33U | 0.218
C22A C33A | 0.2
U21G A40U | 0.317
U21G A40G | 0.463
U21G C34A | 0.218
U21A U61A | 0.907
U21A U61G | 0.94
U21C C33U | 0.919
C22A C34A | 0.206
U21A G68U | 0.976
U21C U62G | 0.614
U21C U62C | 0.516
C22A C66G | 0.138
C22A C66U | 0.177
C22G A51C | 0.151
C22G A51G | 0.131
C22G A51U | 0.163

Variant | self-cleavage
U21G G37A | 0.193
U21G G37C | 0.18
U21G G37U | 0.196
C22A U44G | 0.237
U21C U55C | 0.611
U21G C29G | 0.158
U21G C29U | 0.166
U21C A60G | 0.663
U21C A60U | 0.391
U21A U67A | 0.992
U21A U67C | 0.951
C22A A51G | 0.169
C22A A51U | 0.242
U21C C32U | 0.918
U21C C32A | 0.741
U21C C32G | 0.226
C22A U36A | 0.137
C22A U36G | 0.161
U21C C22A | 0.24
C22A G31C | 0.137
C22A G31U | 0.194
C22A G31A | 0.174
C22A C39U | 0.206
C22A U43A | 0.143

Variant | self-cleavage
C22A U43G | 0.181
U21G A42C | 0.303
U21G A42U | 0.503
C22A U53A | 0.208
C22A U53G | 0.151
U21C C54G | 0.688
U21C C54A | 0.769
U21C C54U | 0.883
U21C G31U | 0.395
C22A C63A | 0.13
C22A C63G | 0.114
C22A G48U | 0.162
C22A G48A | 0.223
C22A G48C | 0.162
U21G U67G | 0.579
U21C G50A | 0.949
U21C G50C | 0.849
U21C G50U | 0.878
C22A G56C | 0.173
C22A G56A | 0.134
U21G U44C | 0.444
U21G U44A | 0.498
U21G U44G | 0.386
U21C U43A | 0.771

Variant | self-cleavage
U21C U43G | 0.682
C22A C24G | 0.249
C22A C24U | 0.128
U21C C45A | 0.87
U21C C45U | 0.88
C22A G41C | 0.138
C22A G41A | 0.12
C22A G41U | 0.154
U21C U53C | 0.726
U21C U53A | 0.765
U21G G58U | 0.657
U21G G58C | 0.519
U21G C39G | 0.865
U21G C33G | 0.215
U21G C33A | 0.163
U21G C33U | 0.575
U21C | 0.92
U21G | 0.644
C22A G25U | 0.115
C22A G25A | 0.162
U21G A51U | 0.497
U21G A51C | 0.509
U21G A51G | 0.54
U21A U49G | 0.95

Variant | self-cleavage
U21A U49C | 0.972
U21A U49A | 0.96
U21G U61C | 0.214
U21G U61G | 0.24
C22G A52G | 0.124
C22G A52U | 0.146
C22G A52C | 0.191
C22A A23C | 0.202
U21G C27G | 0.227
U21A U43A | 0.906
U21A U43G | 0.833
U21G U53G | 0.376
U21G U53C | 0.354
C22A U46G | 0.148
C22A U46A | 0.181
C22A U46C | 0.186
C22A C54U | 0.139
C22A C54G | 0.2
U21C C34U | 0.898
U21C C34G | 0.328
U21C C34A | 0.303
U21A U69C | 1.06
U21A U69A | 1.01
U21A U69G | 1.06

Variant | self-cleavage
U21C U38G | 0.432
U21C U38C | 0.808
U21C U38A | 0.171
U21C U61G | 0.7
U21C U61C | 0.572
C22A A40C | 0.222
C22A A40G | 0.246
C22A A40U | 0.235
U21G U26A | 0.3
U21G U26G | 0.221
U21C G56U | 0.693
U21C G56A | 0.657
U21C G41U | 0.73
U21C G41C | 0.538
U21C G41A | 0.677
U21G G41C | 0.276
U21G G41A | 0.388
U21G G41U | 0.373
U21C A23U | 0.803
U21C A23C | 0.608
C22A G30C | 0.168
C22A G30U | 0.181
U21C U49A | 0.847
U21C U49G | 0.927

Variant | self-cleavage
U21C U49C | 0.868
C22A U62G | 0.112
U21A U62A | 0.853
U21A U62G | 0.798
C22A U61C | 0.164
C22A U61A | 0.219
C22A U61G | 0.25
U21G U62G | 0.273
U21G U62C | 0.305
U21G U62A | 0.316
U21C C63G | 0.635
U21C C63A | 0.47
U21C C63U | 0.804
C22A A52G | 0.214
C22A A52U | 0.118
U21G A23U | 0.483
U21G A23C | 0.379
C22A G37C | 0.265
C22A G37U | 0.937
U21C A59U | 0.581
U21C A59G | 0.928
U21C C57A | 0.252
U21C C57U | 0.379
U21C U26C | 0.805

Variant | self-cleavage
U21C U26G | 0.459
U21G U49C | 0.738
U21C A51U | 0.861
U21C A51C | 0.913
U21C C66G | 0.744
U21C C66U | 0.887
C22A U69A | 0.189
C22A U69C | 0.291
C22A U69G | 0.301
U21G G25C | 0.185
U21G G25U | 0.187
U21A U55C | 0.874
C22A G50U | 0.253
C22A G50C | 0.234
U21C C29G | 0.247
U21C C29U | 0.217
C22A G47A | 0.217
C22A G47U | 0.18
U21C G37C | 0.23
C22A A60C | 0.129
C22A C35A | 0.252
C22A C35G | 0.153
C22A C35U | 0.138
C22A U38G | 0.131

Variant | self-cleavage
C22A U38A | 0.225
U21C G48C | 0.967
U21C G48U | 0.901
U21C G28C | 0.0853
U21C G28U | 0.105
U21G A59C | 0.223
U21G C35A | 0.13
C22A C32A | 0.224
C22A C32U | 0.201
C22A C32G | 0.182
U21C G65C | 0.393
U21C G65U | 0.488
U21C G65A | 0.671
U21G C63A | 0.245
U21G U38G | 0.274
U21G U38A | 0.157
C22A U64G | 0.0937
C22A U64A | 0.176
C22A U64C | 0.168
U21C C39U | 0.842
U21C C39A | 0.498
C22A C57U | 0.137
C22A C57G | 0.187
U21G G56U | 0.611

Variant | self-cleavage
C22A U26G | 0.305
C22A U26C | 0.242
U21A U26A | 0.796
U21A U26G | 0.869
U21A U26C | 0.985
C22G | 0.181
C22A | 0.201
U21G A60G | 0.251
U21G A60U | 0.295
C22A A42G | 0.207
C22A A42C | 0.251
U21G C54G | 0.423
U21G C54U | 0.591
U21G G65C | 0.306
U21G G65U | 0.243
U21A U46A | 1.03
U21A U46G | 0.934
U21A U46C | 0.926
U21G G50U | 0.588
U21G G31U | 0.24
U21G G31A | 0.175
U21G A52G | 0.615
U21G A52U | 0.608
U21C U64C | 0.609

Variant | self-cleavage
U21C U64G | 0.75
C22G A42C | 0.23
C22G A42U | 0.194
C22G A42G | 0.132
U21C U69C | 1.05
C22A C45G | 0.194
U21C C27A | 0.344
U21C C27U | 0.138
C22A U55A | 0.234
C22A U55C | 0.113
U21C A40G | 0.719
U21C A40C | 0.372
U21C A40U | 0.642
U21G G68A | 0.794
C22A G65A | 0.152
C22A G65U | 0.209
U21G U46G | 0.503
U21G U46A | 0.537
C22G A23G | 0.217
C22A C29G | 0.162
C22A C29U | 0.158
C22A C29A | 0.169
C22A G58U | 0.119
C22A G58A | 0.179

Variant | self-cleavage
U21C G25C | 0.118
U21C G25U | 0.13
U21C G25A | 0.121
C22A G28A | 0.158
C22A G28U | 0.159
C22A G28C | 0.124
U21C G68A | 1
U21A U36G | 0.272
U21A U36C | 0.693
U21A U36A | 0.253
U21C U67A | 0.921
U21C U67C | 0.898
U21G U43C | 0.428
U21G U43G | 0.324
U21G U43A | 0.235
U21G U69C | 0.863
U21G U69G | 0.823
U21G U69A | 0.667
U21G C24A | 0.106
U21G C24U | 0.103
U21C C35G | 0.206
U21C C35U | 0.716
U21C A42U | 0.891
U21C A42G | 0.749

Variant | self-cleavage
U21G C22U | 0.181
U21G C22G | 0.227
U21G C22A | 0.2
U21A U64A | 0.91
U21A U64C | 0.874
U21G C57U | 0.253
U21G C57A | 0.22
U21G U55A | 0.592
U21G U55C | 0.358
U21G U55G | 0.346
U21C G30A | 0.522
U21C G30U | 0.268
U21C G30C | 0.235
U21A U38C | 0.373
U21A U38A | 0.276
U21A U38G | 0.24
U21A U44A | 0.901
U21A U44G | 0.952
U21A U44C | 0.817
C22A U49C | 0.209
C22A U49G | 0.0812
C22A U49A | 0.195
U21G G48C | 0.648
U21G G48U | 0.594

Variant | self-cleavage
U21G G48A | 0.674
U21C U36A | 0.0993
U21C U36C | 0.479
U21C U36G | 0.286
U21G G28U | 0.0808
U21C G47A | 0.915
U21C G47U | 0.978
U21C G47C | 0.915
C22A U67G | 0.27
C22A U67A | 0.174
U21C U46A | 0.88
U21C U46G | 0.991
U21G C32U | 0.609
U21G C32A | 0.246
U21G C32G | 0.189
U21A U53A | 0.936
U21A U53G | 0.863
U21A U53C | 0.927
C22G A59C | 0.151
U21C C24G | 0.223
U21C C24U | 0.429
U21C A52C | 0.854
